Measured values reported in paper PMC8962522, “Direct interaction of TrkA/CD44v3 is essential for NGF-promoted aggressiveness of breast cancer cells” (Journal of Experimental & Clinical Cancer Research : CR, 2022).
Blank lines part the entries; values can stand above or below the binder they belong to.

Molecular target: T1, TrkA-His tagged extracellular domain protein (Ala 34-Gly423) (UniProt P04629 34-423, RED-Tris-NTA dye on the His tag (Monolith His-Tag Labeling Kit))
T1 construct: TrkA (tropomyosin kinase A) extracellular domain, Ala34-Gly423; The TrkA used for nanoDSF is not described; source: bought: R&D Systems (9966-TK-050)
Experiment: MST; binding check: peptides and TrkA-His labelled with RED-Tris-NTA; PBS-T; high MST power, 100% LED
Conditions: both partners purified

T1 sequence (P04629 34-423): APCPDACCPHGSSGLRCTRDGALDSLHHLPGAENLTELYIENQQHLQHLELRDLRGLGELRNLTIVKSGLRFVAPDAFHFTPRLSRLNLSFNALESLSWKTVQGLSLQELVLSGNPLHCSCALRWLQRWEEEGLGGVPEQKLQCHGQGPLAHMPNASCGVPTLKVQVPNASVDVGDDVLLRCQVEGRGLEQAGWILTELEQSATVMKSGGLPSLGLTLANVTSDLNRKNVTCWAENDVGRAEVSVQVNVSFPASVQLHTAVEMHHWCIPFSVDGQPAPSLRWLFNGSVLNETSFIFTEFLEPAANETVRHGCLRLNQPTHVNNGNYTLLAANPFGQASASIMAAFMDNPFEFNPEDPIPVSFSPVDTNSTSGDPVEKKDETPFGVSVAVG

binding result: binds
B1: CD44v3 mimetic peptide 3 (peptide)
peptide: RDRHLSFSGSG
notes: zone 3 of CD44 variant exon v3; not glycosylated; numbers count on: exon v3; also called P3; source: synthetic peptide

binding result: binds
B2: CD44v3 mimetic peptide 4 (peptide)
peptide: IDDDEDFISST
notes: zone 4, the C-terminal region of CD44 variant exon v3; numbers count on: exon v3 (D34, F38 as printed); also called P4; CD44v3 C-terminal-mimicking peptide; source: synthetic peptide
